Patent US20160108107A1 (INSTITUT NATIONAL DE LA RECHERCHE AGRONOMIQUE INRA, published 2016)

How the values were obtained:
Assay in all cases: indirect ELISA, protein coated, culture supernatant at 1/50
[1] = target: T1, deamidated ω-2 gliadin
T1 construct: also called ω2-D; deam. ω2
Description: (§1) 100 μl of proteins at 1 μg/ml in 50 mM carbonate buffer, pH 9.6, are incubated overnight at 4° C. at the bottom of a 96-well, bottom, plate (Nunc, Maxisorb). After 3 washes with PBS-0.05% Tween 20, an incubation with PBS-2% (w/v) milk is carried out. The PEE 14C7 monoclonal antibody (100 μl of various dilutions of antibody in PBS-0.1% (w/v) milk) is incubated for 1 h at ambient temperature. After washes with PBS-0.05% Tween 20, 100 μl of the peroxidase-coupled goat anti-mouse IgG secondary antibody (ref: 170-6516, Bio-Rad) diluted to 1/3000 is incubated for 1 h at ambient temperature under the same conditions as the primary antibody. After 3 washes, the OPD (0-phenylenediamine, ref: P-1526, Sigma) substrate is incubated for 30 min in the dark. The reaction is stopped by adding 50 μl of H2SO₄ 4N. The optical densities are read at dual wavelength (490 nm for measuring the hydrolysis of the substrate and 630 nm for eliminating the background noise) on a plate spectrometer (Bioteck, E1x808-1).
(§2) The percentages of reactivity of the antibody with respect to each protein are determined as described in Tranquet et al. (2012). In the present case, the percentages are determined at the 1/50 dilution of the culture supernatant (i.e. the strongest dilution which makes it possible to obtain the strongest absorbence on the best-recognized protein—deamidated gamma-gliadins). The percentage recognition of a protein X is obtained by calculating the Protein X absorbence/deamidated gamma-gliadin absorbence ratio.

[2] = target: T2, native γ-gliadin
T2 construct: also called non-deamidated γ-gliadin
Description: as §1, §2

[3] = target: T3, deamidated α-gliadin
T3 construct: also called α-D; deam. α
Description: as §1, §2

[4] = target: T4, native low-molecular-weight glutenin
T4 construct: also called LMW
Description: as §1, §2

[5] = target: T5, deamidated low-molecular weight glutenin
T5 construct: also called Glut; LMW-D; deam; LMW
Description: as §1, §2

[6] = target: non-deamidated native ω-5 gliadin
Description: as §1, §2

[7] = target: T6, native high-molecular-weight glutenin
T6 construct: also called HMW
Description: as §1, §2

[8] = target: T7, deamidated ω-5 gliadin
T7 construct: also called ω5-D; deam. ω5
Description: as §1, §2

[9] = target: T8, native α-gliadin
T8 construct: also called non-deamidated α-gliadin
Description: as §1, §2

[10] = target: T9, native β-gliadin
T9 construct: also called non-deamidated β-gliadin
Description: as §1, §2

[11] = target: T10, native ω-2 gliadin
T10 construct: also called non-deamidated ω-2 gliadin
Description: as §1, §2

B1: PEE 14C7 monoclonal antibody (antibody, IgG1, V domains shown)
VH: DVQLQESGPDLVKPSQSLSLTCTVTGYSITSGYSWHWIRQFPGNKLEWMGYIHYSGSTNYNPSLKSRISITRDTSKNQFFLQLNSVTTEDTATYYCASGYFDVWGAGTTVTVSS
VL: DVVMTQTPLSLPVSLGDQASISCRSSQSLVHSNGNTYLHWYLQKPGQSPKLLIYKVSNRFSGVPDRFSGSGSGTDFTLKISRVEAEDLGVYFCSQSTLVPWTFGGGTKLEIK
notes: Used in the assays as hybridoma culture supernatant; also called PEE 14C7 antibody; monoclonal antibody produced by the PEE 14C7 hybridoma
percentage of reactivity (Protein X absorbence/deamidated gamma-gliadin absorbence) [1]: 94%
percentage of reactivity (Protein X absorbence/deamidated gamma-gliadin absorbence) [2]: 1%
percentage of reactivity (Protein X absorbence/deamidated gamma-gliadin absorbence) [3]: 76%
percentage of reactivity (Protein X absorbence/deamidated gamma-gliadin absorbence) [4]: 26%
percentage of reactivity (Protein X absorbence/deamidated gamma-gliadin absorbence) [5]: 97%
percentage of reactivity (Protein X absorbence/deamidated gamma-gliadin absorbence) [6]: 7%
percentage of reactivity (Protein X absorbence/deamidated gamma-gliadin absorbence) [7]: 2%
percentage of reactivity (Protein X absorbence/deamidated gamma-gliadin absorbence) [8]: 99%
percentage of reactivity (Protein X absorbence/deamidated gamma-gliadin absorbence) [9]: 1%
percentage of reactivity (Protein X absorbence/deamidated gamma-gliadin absorbence) [10]: 4%
percentage of reactivity (Protein X absorbence/deamidated gamma-gliadin absorbence) [11]: 39%
